Target: 重组人NogoA蛋白 (recombinant human NogoA protein) (human) (UniProt Q9NQC3)
Assay: BLI (Gator label-free analyser), antibody captured on Protein A probe, NogoA at 10, 5, 2.5 and 0 ug/mL

UniProt Q9NQC3, sequence (Q9NQC3 1055-1120 limits assumed): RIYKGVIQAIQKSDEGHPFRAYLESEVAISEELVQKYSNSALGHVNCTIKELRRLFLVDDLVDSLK

B1: NogoAD1-1 (antibody, part only; not given: Light chain variable domain, V domains shown, part only)
VH: EVLLVESQQTPVKPGGSLKASCAGSQSVFLTAAYSWVRPTPEKLLEWVATISYGSPNTYYPDSVKGRYNEKFKGKATLTVETSSSTAYMQLSSLTSEDTAVYFCARRSYGEDSWFSYWGQGTLVTVSS
For B1, the Kd was 8.2 pM.

— patent CN114409779A
